# Patent US20110262949A1
# T1: wt β2 (E. coli class I ribonucleotide reductase subunit β2), P69924
# T1 chain: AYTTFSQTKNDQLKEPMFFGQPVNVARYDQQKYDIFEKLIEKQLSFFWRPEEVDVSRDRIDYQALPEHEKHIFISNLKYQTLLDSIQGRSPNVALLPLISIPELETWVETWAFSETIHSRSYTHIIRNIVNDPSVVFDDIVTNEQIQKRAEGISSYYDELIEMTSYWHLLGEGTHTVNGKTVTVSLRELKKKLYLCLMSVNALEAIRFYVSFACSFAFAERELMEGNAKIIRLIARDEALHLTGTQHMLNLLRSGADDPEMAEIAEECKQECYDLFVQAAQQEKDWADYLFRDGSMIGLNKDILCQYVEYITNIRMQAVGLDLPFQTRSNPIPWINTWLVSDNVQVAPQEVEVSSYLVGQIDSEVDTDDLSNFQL
# Columns and labels:
# [1] = target: T1, wt β2 (E. coli class I ribonucleotide …)
# [2] = target: wt β2 (E. coli class I ribonucleotide reductase subunit β2) (E. coli) (UniProt P69924); assay: cell-based or functional assay
Binder,"1st Phase kobs (SF UV-vis, NH2Y• formation / Y122• loss, with CDP/ATP) [1]","rate constant of NH2Y. formation at 325 nm, fast phase [1] [s⁻¹]","rate constant of NH2Y. formation at 325 nm, slow phase [1] [s⁻¹]","rate constant of Y122. loss at 410 nm, fast phase [1] [s⁻¹]","rate constant of Y122. loss at 410 nm, slow phase [1] [s⁻¹]","2nd Phase kobs (SF UV-vis, NH2Y• formation / Y122• loss, with CDP/ATP) ([1]; in 1/s)",1st Phase Ampl (% of total initial Y122• trapped) [2] [%],2nd Phase Ampl (% of total initial Y122• trapped) [2] [%],EPR spin quantitation at 10 s with CDP/ATP: share of remaining spin in the new signal (NH2Y730.) [2] [%],[NH2Y•] at 20 s in the reaction with β2 and N3ADP/dGTP (EPR) [2] [µM],total initial Y122. consumed at 2 s [2] [%],EPR spin quantitation at 10 s with CDP/ATP: share of remaining spin in NH2Y731. [2] [%]
Y730NH2Y-α2 (E. coli class I ribonucleotide reductase subunit α2 with 3-aminotyrosine at residue 730) (protein) MNQNLLVTKRDGSTERINLDKIHRVLDWAAEGLHNVSISQVELRSHIQFYDGIKTSDIHETIIKAAADLISRDAPDYQYLAARLAIFHLRKKAYGQFEPPALYDHVVKMVEMGKYDNHLLEDYTEEEFKQMDTFIDHDRDMTFSYAAVKQLEGKYLVQNRVTGEIYESAQFLYILVAACLFSNYPRETRLQYVKRFYDAVSTFKISLPTPIMSGVRTPTRQFSSCVLIECGDSLDSINATSSAIVKYVSQRAGIGINAGRIRALGSPIRGGEAFHTGCIPFYKHFQTAVKSCSQGGVRGGAATLFYPMWHLEVESLLVLKNNRGVEGNRVRHMDYGVQINKLMYTRLLKGEDITLFSPSDVPGLYDAFFADQEEFERLYTKYEKDDSIRKQRVKAVELFSLMMQERASTGRIYIQNVDHCNTHSPFDPAIAPVRQSNLCLEIALPTKPLNDVNDENGEIALCTLSAFNLGAINNLDELEELAILAVRALDALLDYQDYPIPAAKRGAMGRRTLGIGVINFAYYLAKHGKRYSDGSANNLTHKTFEAIQYYLLKASNELAKEQGACPWFNETTYAKGILPIDTYKKDLDTIANEPLHYDWEALRESIKTHGLRNSTLSALMPSETSSQISNATNGIEPPRGYVSIKASKDGILRQVVPDYEHLHDAYELLWEMPGNDGYLQLVGIMQKFIDQSISANTNYDPSRFPSGKVPMQQLLKDLLTAYKFGVKTLYYQNTRDGAEDAQDDLVPSIQDDGCESGACKI,"12.8 ± 0.8, 20 ± 1",13.6 ± 0.1,2.5 ± 0.1,12.0 ± 0.1,2.4 ± 0.1,"2.5 ± 0.1, 19 ± 1",–,–,–,–,–,–
"Y730NH2Y-α2 (E. coli class I ribonucleotide reductase subunit α2 with 3-aminotyrosine at residue 730) (enzyme, UniProt P00452 1-761, looked up, 3-aminotyrosine (NH2Y) at position 730 in place of Tyr (E. coli RNR numbering)) MNQNLLVTKRDGSTERINLDKIHRVLDWAAEGLHNVSISQVELRSHIQFYDGIKTSDIHETIIKAAADLISRDAPDYQYLAARLAIFHLRKKAYGQFEPPALYDHVVKMVEMGKYDNHLLEDYTEEEFKQMDTFIDHDRDMTFSYAAVKQLEGKYLVQNRVTGEIYESAQFLYILVAACLFSNYPRETRLQYVKRFYDAVSTFKISLPTPIMSGVRTPTRQFSSCVLIECGDSLDSINATSSAIVKYVSQRAGIGINAGRIRALGSPIRGGEAFHTGCIPFYKHFQTAVKSCSQGGVRGGAATLFYPMWHLEVESLLVLKNNRGVEGNRVRHMDYGVQINKLMYTRLLKGEDITLFSPSDVPGLYDAFFADQEEFERLYTKYEKDDSIRKQRVKAVELFSLMMQERASTGRIYIQNVDHCNTHSPFDPAIAPVRQSNLCLEIALPTKPLNDVNDENGEIALCTLSAFNLGAINNLDELEELAILAVRALDALLDYQDYPIPAAKRGAMGRRTLGIGVINFAYYLAKHGKRYSDGSANNLTHKTFEAIQYYLLKASNELAKEQGACPWFNETTYAKGILPIDTYKKDLDTIANEPLHYDWEALRESIKTHGLRNSTLSALMPSETSSQISNATNGIEPPRGYVSIKASKDGILRQVVPDYEHLHDAYELLWEMPGNDGYLQLVGIMQKFIDQSISANTNYDPSRFPSGKVPMQQLLKDLLTAYKFGVKTLYYQNTRDGAEDAQDDLVPSIQDDGCESGACKI",–,–,–,–,–,–,20,19,53,7.6,39,–
"Y731NH2Y-α2 (E. coli class I ribonucleotide reductase subunit α2 with 3-aminotyrosine at residue 731) (enzyme, UniProt P00452 1-761, looked up, 3-aminotyrosine (NH2Y) at position 731 in place of Tyr (E. coli RNR numbering)) MNQNLLVTKRDGSTERINLDKIHRVLDWAAEGLHNVSISQVELRSHIQFYDGIKTSDIHETIIKAAADLISRDAPDYQYLAARLAIFHLRKKAYGQFEPPALYDHVVKMVEMGKYDNHLLEDYTEEEFKQMDTFIDHDRDMTFSYAAVKQLEGKYLVQNRVTGEIYESAQFLYILVAACLFSNYPRETRLQYVKRFYDAVSTFKISLPTPIMSGVRTPTRQFSSCVLIECGDSLDSINATSSAIVKYVSQRAGIGINAGRIRALGSPIRGGEAFHTGCIPFYKHFQTAVKSCSQGGVRGGAATLFYPMWHLEVESLLVLKNNRGVEGNRVRHMDYGVQINKLMYTRLLKGEDITLFSPSDVPGLYDAFFADQEEFERLYTKYEKDDSIRKQRVKAVELFSLMMQERASTGRIYIQNVDHCNTHSPFDPAIAPVRQSNLCLEIALPTKPLNDVNDENGEIALCTLSAFNLGAINNLDELEELAILAVRALDALLDYQDYPIPAAKRGAMGRRTLGIGVINFAYYLAKHGKRYSDGSANNLTHKTFEAIQYYLLKASNELAKEQGACPWFNETTYAKGILPIDTYKKDLDTIANEPLHYDWEALRESIKTHGLRNSTLSALMPSETSSQISNATNGIEPPRGYVSIKASKDGILRQVVPDYEHLHDAYELLWEMPGNDGYLQLVGIMQKFIDQSISANTNYDPSRFPSGKVPMQQLLKDLLTAYKFGVKTLYYQNTRDGAEDAQDDLVPSIQDDGCESGACKI",–,–,–,–,–,–,24,11,–,7.1,35,45
